Sequences and labels used below:
B1: FBXO3 (parent)
chain: AGGFQQRQGLKYCLPLTFCIHTGL
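Further: lentivirally expressed fusions sorted by FACS into six bins by GFP to DsRed ratio, PSI derived from sequencing read proportions per bin multiplied by bin number.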

Variants of B1 are the subject of the series. Briefly: protein stability index of a GFP-peptide fusion (GPS, HEK-293T) (PSI 1-6); higher = more stable. The settings on record: c terminus: a fixed tail appended.
Take AGGFQQRQGLKRCLPLTFCIHTGL: the protein stability index was 3.39. Next, AGGFQQRQGLKWCLPLTFCIHTGL: 2.43; AGGFQQRQGLKQCLPLTFCIHTGL: 3.79; AGGFQQRQGLKTCLPLTFCIHTGL: 2.2. Next, AGGFQQRQGLKVCLPLTFCIHTGL: 2.36; AGGFQQRQGLKLCLPLTFCIHTGL: 3.06; AGGFQQRQGLKICLPLTFCIHTGL: 2.84. Take AGGFQQRQGLKDCLPLTFCIHTGL: the protein stability index was determined as 2.21.

With AGGFQQRQGLKSCLPLTFCIHTGL, the protein stability index amounted to 3.56. Next, AGGFQQRQGLKCCLPLTFCIHTGL: 2.32; AGGFQQRQGLKECLPLTFCIHTGL: 2.29; AGGFQQRQGLKNCLPLTFCIHTGL: 1.86. With AGGFQQRQGLKPCLPLTFCIHTGL, the protein stability index is 1.68. With AGGFQQRQGLKACLPLTFCIHTGL, the protein stability index was determined as 3.25. Next, AGGFQQRQGLKGCLPLTFCIHTGL: 3.3; AGGFQQRQGLKMCLPLTFCIHTGL: 2.59.

Turning to AGGFQQRQGLKKCLPLTFCIHTGL, the protein stability index was found to be 2.49. AGGFQQRRGLKYCLPLTFCIHTGL: the protein stability index was found to be 2.99. The result for AGGFQQRDGLKYCLPLTFCIHTGL reads 1.88.

Take AGGFQQRHGLKYCLPLTFCIHTGL: the protein stability index was found to be 2.66. Next, AGGFQQRFGLKYCLPLTFCIHTGL: 2.59. On to AGGFQQRCGLKYCLPLTFCIHTGL, for which the protein stability index was 3.53.

On to AGGFQQRYGLKYCLPLTFCIHTGL, for which the protein stability index was 2.17.

Turning to AGGFQQRLGLKYCLPLTFCIHTGL, the protein stability index was 2.56. With AGGFQQRVGLKYCLPLTFCIHTGL, the protein stability index worked out at 2.22.

With AGGFQQRTGLKYCLPLTFCIHTGL, the protein stability index came out at 3.56.

Regarding AGGFQQRGGLKYCLPLTFCIHTGL, the protein stability index was 3.4. The result for AGGFQQRIGLKYCLPLTFCIHTGL reads 2.51. For AGGFQQRMGLKYCLPLTFCIHTGL, the protein stability index was determined as 2.24. The result for AGGFQQRKGLKYCLPLTFCIHTGL reads 3.23; that for AGGFQQRWGLKYCLPLTFCIHTGL, 2.88; that for AGGFQQRAGLKYCLPLTFCIHTGL, 2.82. The result for AGGFQQRQGLKYCLPLDFCIHTGL reads 1.55; that for AGGFQQRQGLKYCLPLPFCIHTGL, 2.59.

With AGGFQQRQGLKYCLPLQFCIHTGL, the protein stability index turned out to be 2.4.

Turning to AGGFQQRQGLKYCLPLLFCIHTGL, the protein stability index was 2.11. Regarding AGGFQQRQGLKYCLPLNFCIHTGL, the protein stability index turned out to be 1.66. Regarding AGGFQQRQGLKYCLPLEFCIHTGL, the protein stability index worked out at 4.01. Next, AGGFQQRQGLKYCLPLHFCIHTGL: 3.39.

For the variant AGGFQQRQGLKYCLPLMFCIHTGL, the protein stability index came to 3.43.

Take AGGFQQRQGLKYCLPLVFCIHTGL: the protein stability index amounted to 3.17.

In the case of AGGFQQRQGLKYCLPLCFCIHTGL, the protein stability index stood at 2.73. Next, AGGFQQRQGLKYCLPLIFCIHTGL: 2.65; AGGFQQRQGLKYCLPLYFCIHTGL: 2.69; AGGFQQRQGLKYCLPLRFCIHTGL: 2.87. Turning to AGGFQQRQGLKYCLPLFFCIHTGL, the protein stability index worked out at 1.67.

As for AGGFQQRQGLKYCLPLWFCIHTGL, the protein stability index stood at 3.79. The result for AGGFQQRQGLKYCLPLGFCIHTGL reads 2.31; that for AGGFQQRQGLKYCLPLKFCIHTGL, 2.75; that for AGGFQQRQGLKYCLFLTFCIHTGL, 2.95. The result for AGGFQQRQGLKYCLSLTFCIHTGL reads 2.81; that for AGGFQQRQGLKYCLWLTFCIHTGL, 1.61; that for AGGFQQRQGLKYCLALTFCIHTGL, 2.77.

Consider AGGFQQRQGLKYCLQLTFCIHTGL, for which the protein stability index turned out to be 2.27.

As for AGGFQQRQGLKYCLILTFCIHTGL, the protein stability index was 3.05. The result for AGGFQQRQGLKYCLGLTFCIHTGL reads 2.33. Next, AGGFQQRQGLKYCLKLTFCIHTGL: 1.13. Regarding AGGFQQRQGLKYCLRLTFCIHTGL, the protein stability index worked out at 2.51.

AGGFQQRQGLKYCLLLTFCIHTGL: the protein stability index turned out to be 2.01.

As to AGGFQQRQGLKYCLMLTFCIHTGL, the protein stability index amounted to 2.93.

Consider AGGFQQRQGLKYCLCLTFCIHTGL, for which the protein stability index was determined as 2.57. The result for AGGFQQRQGLKYCLPRTFCIHTGL reads 2.91; that for AGGFQQRQGLKYCLPKTFCIHTGL, 2.95; that for AGGFQQRQGLKYCLPATFCIHTGL, 2.44. Next, AGGFQQRQGLKYCLPQTFCIHTGL: 1.52. The result for AGGFQQRQGLKYCLPFTFCIHTGL reads 3.56; that for AGGFQQRQGLKYCLPDTFCIHTGL, 1.68; that for AGGFQQRQGLKYCLPMTFCIHTGL, 4.03.

On to AGGFQQRQGLKYCLPETFCIHTGL, for which the protein stability index was found to be 2.03. On to AGGFQQRQGLKYCLPITFCIHTGL, for which the protein stability index was 3.02. With AGGFQQRQGLKYCLPHTFCIHTGL, the protein stability index was 2.58. Next, AGGFQQRQGLKYCLPPTFCIHTGL: 2.75; AGGFQQRQGLKYCLPYTFCIHTGL: 2.33. Next, AGGFQQRQGLKYCLPSTFCIHTGL: 2.17; AGGFQQRQGLKYCLPCTFCIHTGL: 1.66; AGGFQQRQGLKYCLPWTFCIHTGL: 2.89.

With AGGFQQRQGLKYCLPTTFCIHTGL, the protein stability index was determined as 2.53. The result for AGGFQQRQGLKYCLPNTFCIHTGL reads 1.51; that for AGGFQQRQGMKYCLPLTFCIHTGL, 2.56. The result for AGGFQQRQGEKYCLPLTFCIHTGL reads 2.19; that for AGGFQQRQGQKYCLPLTFCIHTGL, 3.23; that for AGGFQQRQGSKYCLPLTFCIHTGL, 3.66. AGGFQQRQGDKYCLPLTFCIHTGL: the protein stability index was determined as 2.84. As for AGGFQQRQGTKYCLPLTFCIHTGL, the protein stability index is 2.53.

As for AGGFQQRQGHKYCLPLTFCIHTGL, the protein stability index came out at 1.64. Next, AGGFQQRQGFKYCLPLTFCIHTGL: 2.03; AGGFQQRQGCKYCLPLTFCIHTGL: 2.26; AGGFQQRQGPKYCLPLTFCIHTGL: 2.2.

Turning to AGGFQQRQGYKYCLPLTFCIHTGL, the protein stability index is 3.49. Next, AGGFQQRQGAKYCLPLTFCIHTGL: 2.95. In the case of AGGFQQRQGNKYCLPLTFCIHTGL, the protein stability index amounted to 2.56. As for AGGFQQRQGWKYCLPLTFCIHTGL, the protein stability index was determined as 3.49.

Turning to AGGFQQRQGVKYCLPLTFCIHTGL, the protein stability index is 2.85.

In the case of AGGFQQRQGKKYCLPLTFCIHTGL, the protein stability index is 3.64.
